Measurements from the DeepSol protein solubility set.

Test: soluble on expression in E. coli; label from the status in PepcDB or PDB records

Sequence	soluble on expression in E. coli
ADGNNIKAPIETAVKPPHRTEDNIRDEARRNRSNAVNPFSAKYVPFNAAPGSTESYSLDEIVYRSRSGGLLDVEHDMEALKRFDGAYWRDLFDSRVGKSTWPYGSGVWSKKEWVLPEIDDDDIVSAFEGNSNLFWAERFGKQFLGMNDLWVKHCGISHTGSFKDLGMTVLVSQVNRLRKMKRPVVGVGCASTGDTSAALSAYCASAGIPSIVFLPANKISMAQLVQPIANGAFVLSIDTDFDGCMKLIREITAELPIYLANSLNSLRLEGQKTAAIEILQQFDWQVPDWVIVPGGNLGNIYAFYKGFKMCQELGLVDRIPRMVCAQAANANPLYLHYKSGWKDFKPMTASTTFASAIQIGDPVSIDRAVYALKKCNGIVEEATEEELMDAMAQADSTGMFICPHTGVALTALFKLRNQGVIAPTDRTVVVSTAHGLKFTQSKIDYHSNAIPDMACRFSNPPVDVKADFGAVMDVLKSYLGSNTLTS	soluble
MSLEEDIQKQIIAAKEEAHDETIWGKPANDIITGIGNNSGVRPQRAIWEMVQNARDVSLNGKADIVFERQHDCFIFQHNGISFTNNTLEALILQTSSKVRNDSVQVGQYGTGFLTTHKLGLKFTLSSSVQLLENEQLFHHFSNFLIDRSSTDKKQMRDSLKKQIKITEEWARNPTIVSGPSSLTTFRYIQEHEVEKMNTKEAFKASSALAPYVIALNPCVNSISFVDNVEDCKELYIRKSTEIINTCDFYNVVKVTIDKCETESCDFTVLMLQSKETVEESGEPKVIVILPIKELESKSVAFALSKDVPNLFIYLPLLGTEQWGLNFIFHSPLFTCDKDSRDSLRFVGNGQNNDVDAERNKGIIQLADVIVSHYITENLSNIQDCMYLAKVAFNLHNSDEALANYYKSLQSSWVKKYESFPFVITKNGNIITRQAKVFDKELFDACLENKDLLTAVYNVTVQIYGTDYLPLETNMLFWSETLLQWYEAESFNPHLIHLSDIVEYIDKNNITTIGEENLWCIDNYIANSKQIGLFTKYKLLPTKNGELRVREDLLNPIIHDESLLKILDSLLPNDVASFIHTRFVLFEDVKIEEYDHNKVKESMRLLVSELSDLQKGHEIYRTNILAGLDVDSNKYEQNKLSDNHINALMGFYAYIVNIGGEAFQYKMIHLLADFYNIDLKSGEAYIKEIYDWRTVAPLLIKDALFRFTLMDSQKQAENAEWVRQMVIALYNYSDYRTYLDKYTVYPNEMDKYCYSKKISKSVNITNDLIALYDKIVNNENGENMCKSIKCVLLKNTYNDYFVENATIEGSSLAEKIMLEIKREGAYPDISANKWKQQILDIIAKQDKDVYWASIFGEIDSSKGAILLSVIQEKEKKDSILSLIRVSDTKKLKALAEVAEDDNLARIIELGKAALRDEMNSEADFEYKKKLGEYVEELIRKEIDSKLKAGSHIMEVLSQQDGQDIIILLDGTAIYYIEVKSRWSQKDSVLMSALQFRTSVEEKTHYALCEVDMITYNRENVDKHEFPDVEETINRISAIMNIGVLNETLKDTLNQDSDQVHVGGDYKVVVPQTVWEEHGKHFNELVEEIKKIVEEKEGHHHHHH	soluble
MEAVVDVVDVEEVVEDVDVVVVDQDAVAVVDLNVVVLVVELVAVLDVVLAADHAVVDVVADVVVDAVDVEVEVVSVVPFKNFELMKPIVHLGLKKDHLMTNVSPIIYSPFIYYHDS	not soluble
MVPPRGDAVRGPLGPGGESVVERYWEALKGVKDPEIPVLNIVEMGMVLGVEAEGKRVKVRFRPTFSGCPAIQLIREEIVGALKEAGAEEVEVEEARTPWSTEAMTEEAREKLLGYGVAPPLPLPMAGEDPPCPRCGSREVVLKNPFGATLCKTLYQCAACGEVFEAFKTV	soluble
MNYKSPVYNVTPIHYTKLQANNYNPNTVPATELKLLEKSIWEDGFTQPIVCYPLENSDKYEIIDGFHRYTIMQTSKRIREREKELLPVVILEKDTVNRIASTIRHNRARGFHNVELMSSIVGELADSGMSDSWIMKNIGMDANEILRLKQVSGLTHLFLDKEFSKASD	not soluble
MAPQMEKVSEELILPSSPTPQSLKCYKISHLDQLLLTCHIPFILFYPNPLDSNLDPAQTSQHLKQSLSKVLTHFYPLAGRINVNSSVDCNDSGVPFVEARVQAQLSQAIQNVVELEKLDQYLPSAAYPGGKIEVNEDVPLAVKISFFECGGTAIGVNLSHKIADVLSLATFLNAWTATCRGETEIVLPNFDLAARHFPPVDNTPSPELVPDENVVMKRFVFDKEKIGALRAQASSASEEKNFSRVQLVVAYIWKHVIDVTRAKYGAKNKFVVVQAVNLRSRMNPPLPHYAMGNIATLLFAAVDAEWDKDFPDLIGPLRTSLEKTEDDHNHELLKGMTCLYELEPQELLSFTSWCRLGFYDLDFGWGKPLSACTTTFPKRNAALLMDTRSGDGVEAWLPMAEDEMAMLPVELLSLVDSDFSK	soluble
MGSDKIHHHHHHMKIAVVGLGNIGFNLFSYINKKYPNSVVGVDIDAGRVNDLRSQGYRVTTDYRALTGIDIWLLAPSTGDQGENLFAALGEMIICPGALISIESTLPPGTMELVRKYLEGKGYRCGQDVYLIHVPHRVMFGVDETVCDTPRVMGAFTQACRDKGRQFYEPLVPQLVEVEDVRIAELSKVVENVKRYVDVAFAQELYQYCKDQGMDFAELRKAVNSKSNVELLGTDWGIGGECLPKDMRFLRKVCPSPLLEGAAIADQEYRDRILQQVGTHQNVLIKGLSYKAGVKDLKHSRGVDLVRALEEAGNTVWVVDPLFTPEELEAAGFKTVEKFDEADLQGWIVLEREKALK	not soluble
MGSDKIHHHHHHMLQNGYVPCSFRISMAGMDVEFNTKNDVIKAYLSRPDDGMRHPGIVVIHEIFGLDDHIRSVADRISREGYVALAPDLFSSHELSAKITREGILESMKFIMSIPPEKQRDDSYRNSLLNSMPEEKRRIMSSTYSALFVNRPTQLLTEYLEYAVDYLKGIGVTSVGSVGFCFGGGMSANLGCTGKVDATVIFYGENPDPIDKVKGMKSVLGLYAGEDHRITSRVPELLAKLIEFSIPVTIKVYPGAYHAFFNDTRPQIYNEAAAKDAWNMMLYFFRTQLGP	not soluble
MKKILLVLNHSLAGFGSDEQAQLKPSGKKAPLGPGVTLLPFLQKQGAEIVATLYCGDQYYLENEEEVAKKFIGFAKKFHADAVLCGPAMHYPNFGEMAARLACKFNAAGIPAIAAMAEENPAVSHYYQQVPIVKMPKKGGIGLNNSFKQMAQLVVAKANGKETKQLEETSCF	not soluble
MSSQIRGSKQHEDVDPVTIKKIEEAYVMLNGPDGAKCSSLLKKNLTKDVIEKLKTKSTKLGANLYDCIRSGVYCLDALVGVYAPDAEAYTLFAPLFDKIIEDYHGLGPDQKQPPVDLGEGKTKEFPPLDPKGKYIKSTRIRCGRSLNGYQFNPCLTEDNYLEMEEKVKKAFSEFSDEELKGTYYPLDGMSKDTQNQLIADHFLFKEGDRHLQYANACNFWPKGRGIFHNNKKTFLIWVNEEDHLRIISMQEGSDVGAVLERLIKGVRGIEKQVQFSRDDRLGWLTFCPTNLGSTVRASVHIALPKLSAREDFKQICDKLDLQLRGIHGEHSESEGGVYDISNRARLGLSEYEAVKKMYDGVKNLIEMEEKET	not soluble
MSLKLVKLETFSTEFVCFVRATAEDGAQGWGQVAPYYADITAQVLHRQVAPYALGMACEDIDAMLDIVRDREHKFPGSYLRRAMGGVDTALWDMHGRRAGKPVCVLIGGTPGPVRAYGSSMKRDITPRDEAARLVRLRDEQGFDAFKFRIGAEVGRDRDEWPGRTEEIVPTMRRAMGDDVALLVDANSCYSPARAIEVGRMLEQHGISHYEEPCPYWEFAQTKEVTDTLDLDITGGEQDCLMERWQTMIADRVVDVLQPDICYLGGLSRTLRVARMAEAAGMPITPHAANLSMVTLFTMHLLRAIPNAGKYLEFSIEGLDYYPWQQGLFTSDPYRIEEGHATVTDAPGWGVDVNPDWLARSEGHHHHHH	not soluble
HMKIAIFGTVGAGKSTISAEISKKLGYEIFKEPVEENPYFEQYYKDLKKTVFKMQIYMLTARSKQLKQAKNLENIIFDRTLLEDPIFMKVNYDLNNVDQTDYNTYIDFYNNVVLENLKIPENKLSFDIVIYLRVSTKTAISRIKKRGRSEELLIGEEYWETLNKNYEEFYKQNVYDFPFFVVDAELDVKTQIELIMNKLNSIKNPN	soluble
MKTIEEIKSTPKTVMKKPELLAPAGNLEKLKIAVHYGADAVFLGGQEYGLRSNADNFTMEEIAEGVEFANRYGAKIYVTTNIIAHDENIEGLESYLRNLEKTGATGIIVADPLIIETCKEVAPKLEIHLSTQQSLSNYKAVEYWKEEGLDRVVLARETGAMEMREMKEKVDIEIEAFIHGAMCIAYSGRCTLSNHMTARDSNRGGCCQSCRWDYELLEVDDNGELDVFYNQGEVTPFAMSPKDLKLIESIPQMMDIGVDSLKIEGRMKSIHYIATVVSVYRKVIDAYAADPDNFKINPEWLIELDKCANRDTAPAFFEGTPGYEEQMFGQQQSKKSSFDFCGLVLDYNEDTKIATIQQRNNFKPGQEIEFFGPEIETFTQVVEAIYDEEGNSLDAARHPLQIVQIKVDRPIYPNNMMRKEIG	not soluble
MKYIVLLGDGMSDEPMQELGGKTPLQAARTPHMDAMARRGRIGLARTVPEGYPPGSDVANLSVFGYDPRACYTGRSPLEAASMGVELGSADVAFRVNLVNLAPTRGTLVMNDYSAGHISTAEGRELIEAIQGVMGTDEFQFYPGVGYRHLMVWRNGKCGMTVVPPHDISGQSILEHLPKGEGAERLIELMNSSQLVLNNHPQYRRRLEEGKVPANSIWLWGHGKAPRMASFHEKFGLTGAVISAVDLVRGIGVCAGLDVIKVEGATGYIDTNYEGKVTAALEALEAHDYVYLHVEAPDEAGHGGNLEHKLKAIEDFDARVVGPIMAGMEKFGSYRILCTPDHPTPLRLKTHTDAPVPFVLFSGETSENAGVAGYDEESARSAGLVVEDGFRLMEMMLDRLEHHHHHH	soluble
MLREFSFYDVPPAHVPPVSEPLEIACYSLSRDRELLLDDSKLSYYYPPPLFSDLNTGFPNRFHPPKSDPDPISIVKDVLMTKGIQMNSSFLTWRGLITKIMCAPLDPRNHWETYLVMDPTSGIIMMEERTRSETSYANQDRMCYWGYKFEAISTLPEIWDACSRDQIEQRDNQDVVPDEQYCSIVKINIGKSKLILAGEVDCIWDKKPCSAKESDVHSDDGTIEEDASNAENPNLHYVELKTSKKYPLENYGMRKKLLKYWAQSFLLGIGRIIIGFRDDNGILIEMKELFTHQIPKMLRPYFKPNDWTPNRLLVVLEHALEWIKQTVKQHPPSTEFTLSYTGGSKLVLRQIILEHHHHHH	soluble
GPPGPPGPPGPPGPRGRTGPPGPPGPPGPP	soluble
MAGDPMTFLIIRQTHENVLSKETVVKKVEASYEGKVTKATQSKDKKTYDITLENPKGTYFVKADAISADILSMNRVKAVNPSAMTEKEAEHLALERVPGTVKKQTRQSQVATYTIQKEDGKTYEVKVDMQAKTVLSADQISSKDQQKTPITKKEAKTIAERKTGGTADDADLEESEGTLIFEVDVDLPDNKEATVKINAYTGKVANIVYEDLEHHHHHH	not soluble
MPYVDRQNRICGFLDIEDNENSGKFLRRYFILDTQANCLLWYMDNPQNLAVGAGAVGSLQLTYISKVSIATPKQKPKTPFCFVINALSQRYFLQANDQKDLKDWVEALNQASKITVPKAGTVPLATEVLKNLTAPPTLEKKPQVAYKTEIIGGVVVQTPISQNGGDGQEGCEPGTHAFLRRSQSYIPTSGCRPSTGPPLIKSGYCVKQGNVRKSWKRRFFALDDFTICYFKCEQDREPLRTIPLKDVLKTHECLVKSGDLLMRDNLFEIITTSRTFYVQADSPEDMHSWIEGIGAAVQALKCHPREPSFSRSISLTRPGSSTLTSAPNSILSRRRPPAEEKRGLCKAPSVASSWQPWTPVPQAEEKPLSVEHAPEDSLFMPNPGESTATGVLASSRVRHRSEPQHPKEKPFVFNLDDENIRTSDV	soluble
